These are literature values, as cited in paper PMC12687026.

Data set [1] has as its system His194. The data set can be described thus: kinetics. The conditions noted are these: green (unconverted) LEA.
Data set [2] deals with Glu212. Nature of the data set: kinetics. The conditions noted are these: green (unconverted) LEA.

Consider “LEA (least evolved ancestor), engineered Kaede-like green-to-red photoconvertible fluorescent protein (synthetic construct (reconstructed ancestral coral fluorescent protein))”, for which the pKa entry in data set [1] is on record as “∼7.5”; in data set [2], “∼4.5”.
